Like-named read-outs stand apart in the source and are kept apart here.
B1: 32-mer s2m dsDNA (dsDNA)
DNA 1: CGAGGCCACGCGGAGTACGATCGAGGGTACAG
DNA 2: CTGTACCCTCGATCGTACTCCGCGTGGCCTCG
B2: SARS-CoV NP248-365 (C-terminal domain of the SARS-CoV nucleocapsid protein, residues 248-365) (domain or fragment)
chain: TKKSAAEASKKPRQKRTATKQYNVTQAFGRRGPEQTQGNFGDQDLIRQGTDYKHWPQIAQFAPSASAFFGMSRIGMEVTPSGTWLTYHGAIKLDDKDPQFKDNVILLNKHIDAYKTFP

Key:
[1] = molecular target: SARS-CoV N protein NTD (NP45-181) (SARS-CoV, UniProt P59595 45-181); experiment: EMSA
[2] = molecular target: T1, SARS-CoV N protein CTD (NP248-365) (SARS-CoV, UniProt P59595 248-365); experiment: EMSA
[3] = molecular target: SARS-CoV N protein NP281-365 (SARS-CoV, UniProt P59595 281-365); experiment: EMSA
[4] = molecular target: SARS-CoV N protein NP45-365 (SARS-CoV, UniProt P59595 45-365); experiment: EMSA
[5] = molecular target: T1, SARS-CoV N protein CTD (NP248-365); experiment: EMSA; remark: listed apart in the source
[6] = molecular target: the molecule itself; experiment: cross-linking

Binder | binding result [1] | binding result [2] | binding result [3] | binding result [4] | binding result [5] | binding result [6]
CGAGGCCACGCGGAGUACGAUCGAGGGUACAG (ssRNA) [s2m 32-mer ssRNA] | binds | binds | no binding | binds |  | 
B1 |  |  | no binding |  | binds | 
CGAGGCCACGCGGAGTACGATCGAGGGTACAG (ssDNA) [32-mer ssDNA mimic of s2m] | binds | binds | no binding | binds |  | 
B2 |  |  |  |  |  | binds
